# T1: CTLA-4-His (human, UniProt P16410 36-161, limits assumed, N-linked glycosylation at N113 and N145 (heavily glycosylated))
# T1 construct: also called antigen CTLA-4-His; not shown: His tag
# T1 sequence: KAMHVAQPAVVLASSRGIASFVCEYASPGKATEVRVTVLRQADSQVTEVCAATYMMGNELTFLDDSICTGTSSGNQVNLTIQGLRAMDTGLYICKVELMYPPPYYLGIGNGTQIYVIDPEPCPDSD
# T2: CTLA-4 WT expressed on 293T cells (human, UniProt P16410 36-223, N-linked glycosylation at N113 and N145)
# T2 construct: also called wild type CTLA-4; Flag-tagged CTLA-4 WT
# T2 sequence: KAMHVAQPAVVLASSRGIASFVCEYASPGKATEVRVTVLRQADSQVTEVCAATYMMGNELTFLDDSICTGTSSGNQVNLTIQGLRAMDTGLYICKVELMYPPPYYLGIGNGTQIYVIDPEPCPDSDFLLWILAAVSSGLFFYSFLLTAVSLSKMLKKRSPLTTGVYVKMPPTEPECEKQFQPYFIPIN
# Legend:
# [1] = biological target: T1, CTLA-4-His; test: Biacore X100 SPR, antibody captured on CM5 chip, six concentrations of CTLA4, 1:1 fit
# Description: KD determination was performed via surface plasmon resonance using a Biacore X100 instrument (GE Healthcare, Uppsala, Sweden). […] was immobilized on a research-grade CM5 chip using standard procedures, and antibody was flowed over the chip at 2 μg/mL in HBS-EP⁺ buffer. Next, six concentrations of CTLA4, each a 2-fold dilution, were passed over the chip. Sensorgram data were analyzed by Biacore X100 evaluation software version 2.0.1 with 1:1 binding kinetics.
# [2] = biological target: T2, CTLA-4 WT expressed on 293T cells; test: IncuCyte, inhibition of CD86-Fc binding to 293T cells expressing CTLA-4
# Description: (§1) The green fluorescent signals were measured every 2 hours and quantified using an IncuCyte Zoom system (Essen BioScience).
# [3] = biological target: T1, CTLA-4-His; test: Octet BLI, antibody loaded on sensor, 1:1 fit
# Description: KD determination and binning by Octet. […] Baseline was established in PBS containing 1 mg/ml bovine serum albumin (assay buffer), the association step was performed by submerging the sensors in a single concentration of analyte in assay buffer. Dissociation was performed and monitored in fresh assay buffer. All experiments were performed with sensor shaking at 1,000 rpm. ForteBio's data analysis software was used to fit the data to a 1:1 binding model to extract an association rate and dissociation rate. The KD was calculated using the ratio kd/kₐ. In a typical epitope binning assay, antigen CTLA-4-His (10 nM) was preincubated with the second antibody (10 nM) for 1 h at room temperature. Control antibody (20 nM) was loaded onto AMC sensors (ForteBio) and remaining Fc-binding sites on the sensor were blocked with a whole mouse IgG antibody (Jackson ImmunoResearch). The sensors were exposed to preinculated antigen-second antibody mixture. Raw data was processed using ForteBio's Data Analysis Software 7.0 and the antibody pairs were assessed for competitive binding.
# The baseline was established in PBS containing 1 mg/mL bovine serum albumin (assay buffer), and the association step was performed by submerging the sensors in a single concentration of analyte in assay buffer. Dissociation was performed and monitored in fresh assay buffer. All experiments were performed with the sensor shaking at 1,000 rotations per minute. ForteBio (Menlo Park, Calif., USA) data analysis software was used to fit the data to a 1:1 binding model to extract an association rate and dissociation rate. KD was calculated using the ratio kd:ka.
# [4] = biological target: T3, CTLA-4 N113Q mutant expressed in 293T cells (human, UniProt P16410 36-223); test: blot under native condition of 293T cells expressing flag-tagged CTLA-4
# T3 construct: Flag-tagged; single-glycosylated (only N145 can carry a glycan); Tested by Western blot
# [5] = biological target: T4, CTLA-4 N145Q mutant expressed in 293T cells (human, UniProt P16410 36-223); test: as above
# T4 construct: Flag-tagged; single-glycosylated (only N113 can carry a glycan); Tested by Western blot
# [6] = biological target: T5, CTLA-4 2NQ (non-glycosylated form) expressed in 293T cells (human, UniProt P16410 36-223); test: as above
# T5 construct: also called CTLA-4 2NQ mutant; unglycosylated CTLA-4
# [7] = biological target: T2, CTLA-4 WT expressed on 293T cells; test: IncuCyte, inhibition of CD86-Fc binding to CTLA-4-expressing cells; human chimera hSTC1807 (FIG. 8B), not the mouse STC1807 of FIG. 7B (2.189 µg/mL)
# Description: as §1
binder,measurement,setting,value
"anti-glycCTLA-4 monoclonal antibody STC1807 (antibody, V domains shown, Mouse hybridoma monoclonal antibody (BALB/c), kappa light chain; also called MAb STC1807) VH: EVQLQQSGAELVRPGALVKLSCKASGFNIKDYYMNWVKQRPEQGLEWIGWIDPENGNTIYDPKFQGKASIIADTSSNTAYLQLSSLTSEDTAVYYCARKWSYTMDYWGQGTSVTVSS VL: QIVLTQSPALMSASPGEKVTMTCSASSFVGYMYWYQQKPRSSPKPWIYLTSNLASGVPGRFSGSGSGTSYSLTISNMEAEDAATYYCQQWSSNPLTFGAGTKLELK",Kd,[1],0.469 nM
same,koff,[1],0.000217 s⁻¹
same,kon,[1],463000 M⁻¹ s⁻¹
same,EC50,[2],2.19 µg/mL
same,Kd,[3],1.86 nM
same,koff,[3],0.000499 s⁻¹
same,kon,[3],268000 M⁻¹ s⁻¹
same,binding result,[4],no binding
same,binding result,[5],binds
same,binding result,[6],no binding
"human chimera of STC1807 (hSTC1807) (antibody, V domains shown, domain: kappa constant region of pFUSEss-CLIg-hK; Mouse constant regions replaced by human ones; also called human chimera STC1807; chimeric antibody (hSTC1807); not shown: human IgG1 constant region (CH1-CH3) from vector pFUSEss-CHIg-hG1 (Invivogen)) VH: EVQLQQSGAELVRPGALVKLSCKASGFNIKDYYMNWVKQRPEQGLEWIGWIDPENGNTIYDPKFQGKASIIADTSSNTAYLQLSSLTSEDTAVYYCARKWSYTMDYWGQGTSVTVSS VL: QIVLTQSPALMSASPGEKVTMTCSASSFVGYMYWYQQKPRSSPKPWIYLTSNLASGVPGRFSGSGSGTSYSLTISNMEAEDAATYYCQQWSSNPLTFGAGTKLELKR",EC50,[7],0.331 µg/mL

# Reference: patent publication US20220411511A1 (STCUBE, published 2022)
